In the nanobody polyreactivity screen of Harvey et al. (2022):

Assay: yeast display, Sf9 membrane polyspecificity reagent, FACS + sequencing; frameworks hold sequencing errors
Outline: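 Sorting gates, low and high (top ~1%), were placed on anti-HA fluorescence to track expression and on streptavidin fluorescence to track reagent binding. A clone's polyreactivity label is taken from the gate it came out of. The reagent was 10% biotinylated, detergent-solubilized Sf9 membrane, applied for 1 hour at 4 °C to galactose-induced yeast display cells.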

In the case of “QVQLVETGGGLVQAGGSLRLSCASSGRTCVDNTMGWYRQEPGKESELVATITSGDSTNYEESVKGRFTISRDNAKYTVYLQMNSLKPEDTAVYYCAAVTNWYYYYTHRMEYWGQGTQVTVSS”, the “polyreactivity (PSR sort gate)” value was “low polyreactivity”.

In the case of “QVQLVETGGGLVQAGGSLRLSCASSGSIFRAYAMGWYRQAPGNERELVAYISRSGGSTYYADSVKGRFTISRDNAKNTVYLQMNSLTQEDTAFYYCAAVFYLYSNLYGEYDYWGQGTQVTVSS”, the “polyreactivity (PSR sort gate)” value was “low polyreactivity”.

For “QVQLVETGGGLVQAGGSLRLSCDASGRTFRIYGMGWYRQAPGKERELVAAISYSTGGTYYADSVKGRFTISRDNAKNTVYLQMTSLKPEDTAVYYCAAVVYAYLYADYDYWGQGTQVTVSS”, the “polyreactivity (PSR sort gate)” value was “low polyreactivity”.

For “QVQLVETGGGLVQAGGSLRLSFGASGSTFSQYGMGLYRQAPGKVRELVAAIRRSGGRTYYADSVKGRFTISLDNAKNTVYLQMNSLKPEDTAVYYCAADEYRYYFYRPGIGYDYWGQGTQVTVSS”, the “polyreactivity (PSR sort gate)” value was “low polyreactivity”.

In the case of “QVQLVETGGGLVQAGGSLRLSSAASGITFKWNDMGCYRQAPGKEREFVAAITGSTGSTFYADSVKGRFTISRDNAKNTVYLQMNSLKPEDTAVYYCAAGPWFYYWGQGTEVTVSS”, the “polyreactivity (PSR sort gate)” value was “low polyreactivity”.

In the case of “QVQLVETGGGLVQAGGSLRLSSAASGRIFRNYTMGWYRQAPGKERELVAAISSSGGRTYYADSVKGRFTISRDNEKNTVYLQMNSLKPEDTAVYYCNTDGPTWYPTYDYWGQGTQVTVSS”, the “polyreactivity (PSR sort gate)” value was “high polyreactivity”.

With “QVQLVETGGGLVQARGSLRLSCAASVSILYGNAMGWYRQAPGKERELVAAISRGGSTYYADSVKGRFTISRDNAKNTVYLQMNSLKPEDTAVYYCNALYTSYYRPSGMGYWGQGTQVTVSS” the “polyreactivity (PSR sort gate)” value was “high polyreactivity”.

With “QVQLVETGGGLVQSGGSLRLSCAASGSTFTYYAMGWYRQAPGKERELVAAIDFSGTSTYYADSVKGRFTISRDNAKNTVYLQMNCLKPEDTAVYFCAASQSLYWGGAHDNGEFGYWGQGTQVTVSS” the “polyreactivity (PSR sort gate)” value was “low polyreactivity”.

For “QVQLVETGGLLVQAGGSLRLTCAGSGLIFYYYAMGCYRQAPGKERELVATISWYGGSTYADSVKGRFTISRDNAKNTVYLQMNSLKPEDPAVYYCAARYFVYYLEVDYWGQGTQVTVSS”, the “polyreactivity (PSR sort gate)” value was “low polyreactivity”.

With “QVQLVETGGRLVQAGGSLRLSCAASGFTFHQYTMGWYRQAPGKESELVAAITGTGDTYYADSVKGRFTISRDNAKNTVNLQMNSLKPEDTAVYYCAADWVTYWYYKGFYYWGQGTQVTVSS” the “polyreactivity (PSR sort gate)” value was “high polyreactivity”.

With “QVQLVETGGVLVQAGGSLRLSCAASGRIFFYYVMGWYRQAPGKERELVAGITRGGITNYADSVKGRLTISRDNAKNTVYLQMNSLKPEDTAVYYCKARAPSYYRYRASAAYDYWGLGTQVTVSS” the “polyreactivity (PSR sort gate)” value was “high polyreactivity”.

In the case of “QVQLVETGRGLFHAGGSLRLSCAASGGIFRVYAMGWYIPAPGKERELVAAISRSGSSTYYADSVKGRFTISRDNAKNTVYLQMNSLKPEDTAVYYCNAYSQYWLGNNYWGQGTQVTVSS”, the “polyreactivity (PSR sort gate)” value was “high polyreactivity”.

In the case of “QVQLVETGRGLVQAGGSLRLSCAASGSTFGSYAMGWYRPAPGKEREFVATISRSGGRTYYAASVKGRFTISRDNAKNTVYFQMNSLKPEDTAVYYCATDRRYWIGYDYWGQGTQVTVSS”, the “polyreactivity (PSR sort gate)” value was “high polyreactivity”.

With “QVQLVETGVGLVQAGGSLRLSCAASGRIFKRNTMGWYRQAPGKEREFVASITFSGGSTNYADSVKGRFTISRDNAKNTVYLQMNSLKPEDTAVYYCAARDYHYSTYDYWGQGTQVTVSS” the “polyreactivity (PSR sort gate)” value was “low polyreactivity”.

In the case of “QVQLVETGVGLVQAGGSLRLSCAASGRTFTTYAMGWYRQAPGKERELVAAITGSGGSTYYADSVNGRFTISRDNAKNTVYLQMNSLKPEDTAVYDCAKGYHQYAGFYYWGQGTQVTVSS”, the “polyreactivity (PSR sort gate)” value was “high polyreactivity”.

For “QVQLVETRGGLVQAGGSLRLSCAASGPIIRYYDMGCYRQAPGTERELVSASNAAGTSTYYADSVKGRFTISRDNAKNTVYLQMNSLKPEDTAVYYCAAQPYYGGGCYCYTRNYKLNYWGQGTQVTVSS”, the “polyreactivity (PSR sort gate)” value was “high polyreactivity”.

With “QVQLVEYVELLVQAVGILSLSCAASGLTIYYYIMGWYLHAPRKEREFLAAISNSGCRPYYADSVNGRFTISRDNAKNTDYLQMNSLIPEDTPVYYCAAQSRYGGKFLYWGQGTQVTVSS” the “polyreactivity (PSR sort gate)” value was “high polyreactivity”.

With “QVQLVGSGGGLVQAGGSLRLSCAASGRIFDKNAMGWYRQAPGKERELVAAISGGGRTYYADSVKGRFTISRDNAKNTVYLQMNSLKQEDTAVYYCNVPYYYTGGSYGYWGQGTQVTVSS” the “polyreactivity (PSR sort gate)” value was “low polyreactivity”.

With “QVQLVHSGGGLVQAGGILRLSCAASGYTFGYYTRGWYRQAPGKERELVASIDSGGGTNYADSVKGRFSISRDNAKKTVYLQMNSLKPEDNAVYYCAAESPLYWVEDFESGWRFYYCGQGTQVTVSS” the “polyreactivity (PSR sort gate)” value was “low polyreactivity”.

In the case of “QVQLVHSGGGLVQEGGSLRLSCAASGSIFYSYGMGWYRQAPGKERELVAAITSSGGGTYYADSVKGRFTISRDNAKNNVYLQMNSVKAEDTAVYYCAADDRNYNYYPTFYYWGQGTQVTVSS”, the “polyreactivity (PSR sort gate)” value was “low polyreactivity”.

For “QVQLVKSGGGLVQAGGSLRLSCAASGSTFYNDMGGYIHSPGKEIELVAAISIGGSTYYADSVKGRFTISRDNANHTVYLQMSCLKPEDTAVYYCAAVWYTSRQKYDYWGQGTQVTVTS”, the “polyreactivity (PSR sort gate)” value was “low polyreactivity”.

With “QVQLVKSGGGLVQAGGSLRLTCAASGFTFFVYAMGWYRQAPGKETELVAAITSSGGSTYYADSVKGRFTISRDNAKNTVYLQMNSLKPEDTAVYYCAPDRYSYLGYPYEYEYWGQGTQVTVSS” the “polyreactivity (PSR sort gate)” value was “low polyreactivity”.

For “QVQLVQSGGGLVQAGGSLRLSCAASGIIFYVYAMGWYRQAPGKERELVAAISRSGGRTYYADSVKGRFTISRDNPKNTVYLQMNSLKPEDTAVYYCAAVYPRQVSQVWRDDYWGQGTQVTVSS”, the “polyreactivity (PSR sort gate)” value was “high polyreactivity”.

In the case of “QVQLVQSGGGLVQAGGSLRLSCAASGLTFYYNVMGWYRQATGKERELVAAITSGGRTYYGDSVKGRFTISRDNAKNTVYLQMNSLKPEDTAVYYCARPYSRAYDYWGQGTEVTVSS”, the “polyreactivity (PSR sort gate)” value was “high polyreactivity”.

With “QVQLVQSGGGLVQAGGSLRLSCAASGRIFRLSGMGWYRQAPGKERELVAAITRGASTYYADSVKGRFTISRDNAKNTVYLELNSLKPEDTAVYYCAAEGLITGGYWHLYYWGHGTQVTVSS” the “polyreactivity (PSR sort gate)” value was “high polyreactivity”.

With “QVQLVQSGGGLVQAGGSLRLSCAASGRIFVDNAMAWYRQAPGKERELDAGLTTGGSTYYADSVKGRFTISRDNAKNTVYLQMNSLKPEDTAVYYCNARDHALHRDVLYWYGFDYWAQGTQVTVSS” the “polyreactivity (PSR sort gate)” value was “low polyreactivity”.

In the case of “QVQLVQSGGGLVQAGGSLRLSCAASGSIFGDYAMGWYRQAPGKEREFVARINVSGTSTFYADSVKGRFTISRDNAKNTVYLQMNSLKPEDTAVYYCAARGLPSNYYYYVHGYIMDYWGQGTQVTVSS”, the “polyreactivity (PSR sort gate)” value was “low polyreactivity”.

For “QVQLVQSGGGLVQAGGSLRLSCAASGSIIGTYAMGCYRQAPGKERELVADINSGGSTYYADSVKGRFTISRDNAKNTVYLQMNSLKPDDTAVYYCAATGGVLYGTWLSYDRWGGGYWGQGTQVTVSS”, the “polyreactivity (PSR sort gate)” value was “low polyreactivity”.

With “QVQLVQSGGGLVQAGGSLRLSCAASGSTFPQNAMGWNRQAPGKERELVAVISRSGGNTYYADSVKGRFTISRDNAKNTVYLQMNSLKPEDTAVYYCATRVNTTYDYWGQGTQVTVSS” the “polyreactivity (PSR sort gate)” value was “low polyreactivity”.

With “QVQLVQSGGGLVQAGGSLRLSCAASGSTFSGYTMGWYRQAPGKEREFVAAISSRGGSTYYADSVKGRFTISRDNAKNTVYLQMNSLKPEDTAVYYCAAKVWARVDGRQFRMEYWGQGTQVTVSS” the “polyreactivity (PSR sort gate)” value was “high polyreactivity”.

In the case of “QVQLVQSGGGLVQAGGSLRLSCAASGSTFYVYAMGWYRQAPGKEREFVAAISRSGGRTYYAVSVKGRFTISRDNAKNTVYLQMNSLKPEDTAVYYCNARDSLRYYTYYFEDYRVGYDYWGQGTQVTVSS”, the “polyreactivity (PSR sort gate)” value was “high polyreactivity”.

For “QVQLVQSGGGLVQAGGSLRLSCDASGSMFLVYAMGWYRQAPGKERELVAAISRSGRTYADSVKGRFTISRDNAKNTVYLQMNSLKPEDTAVYYCAAGTKRRFEGDYWVQGTQVTVSS”, the “polyreactivity (PSR sort gate)” value was “high polyreactivity”.

For “QVQLVQSGGGLVQAGGSLRVSCAPSGRIYAMGWSRQAPGKERELVARITKSGTSTYYADSVKGRFTISRDNAKNTVYLQMNSMKPEDTAVYYCATATFYRSVLYGYWGQGTQVTVSS”, the “polyreactivity (PSR sort gate)” value was “high polyreactivity”.

With “QVQLVQSGGGLVQAGGSLSLICAASGRIFGYYAMGWYRQAPGKERELVDTITFGGGSTYYADSVKGRFTISRDNAKNTVYLQMNSLKPEDTAVYYCAADCGYLGIYGDEYSWGQGTQVTVSS” the “polyreactivity (PSR sort gate)” value was “low polyreactivity”.

With “QVQLVQSGGGLVQAGGSLSLSCAGSGSTFHNYAMGWYRQAPGQEREMVAGISVRGGGTYYAYSVKGRFTISRDNANNTVYVQMNSLKPEETAVYYCAASRSRYSVNWYNYWGQGTQVTVSS” the “polyreactivity (PSR sort gate)” value was “high polyreactivity”.

For “QVQLVQSGGRLVQAGGSLRLSCAASGLIFVHYTMGWYRQAPGKERELVASINSGGSTNYADSVKGRFTISRDNAKNTVYLQMISLKPEDTAVYYCADRRVVFWRRMYYWGQGTQVTVSS”, the “polyreactivity (PSR sort gate)” value was “high polyreactivity”.

In the case of “QVQLVQSRGGLVHAGGSLRFSSAATGITILRYAMGWYIQAPGKERELVAGISWDGGRTYNADSVKGRFTISRDNAKNTVFLQMNSMKPEDTEVYYCADKPSRYRVSLFDYWGHGTQVTVSS”, the “polyreactivity (PSR sort gate)” value was “low polyreactivity”.

In the case of “QVQLVQSRGGLVQAGGSLRLSCAASGSTFSGNAMGWYRPAPGKEREFVAAITSSGGSTYYADSVKGRFTISRDNAKNSVYLQMNSLKPEDTAVYYCATDNPFLWWFRPDQHGMGYWGQGTQVTVSS”, the “polyreactivity (PSR sort gate)” value was “low polyreactivity”.

In the case of “QVQLVQSWPGLVQEGGSLRLSSAESGYTIRWYAMGCYRQAHGKERELVASITSGGNTNYADSVKGRFTISRDNAKNTVYLQMNRLKTEDTEVYYCAATRGYYRLDYWGQGTQVTVSS”, the “polyreactivity (PSR sort gate)” value was “high polyreactivity”.

For “QVQLVQTGGGLVQAGGSLRLSCAASGRTFRYYAMGLYRQAPGKEREFVATITYSSGSTYYADSVKGRFTISRDNAKNTVYLQMNSLKPEDTAVYYCNAEGYCNSYGYWGQGTQVTVSS”, the “polyreactivity (PSR sort gate)” value was “low polyreactivity”.

In the case of “QVQLVVSGGGLVQAGGSIRLSCAASGRIFFYNAMGWYRQAPGKERELVAGISSGGGSTYYADSVKGRFTISRDNAKNTVYLQLNSLKPDDPAVYYCNKVVYSYSVGVGEYDYWGQGTQVTVSS”, the “polyreactivity (PSR sort gate)” value was “high polyreactivity”.

In the case of “QVQLVVSGGGLVQAGGSLRLRCAASGRTFVRYAMGWSRQAPGKERELVARITTRGTSTYYADSVKGRFTISRDNAKNTVYLLLNSLKPEDTAVYYCNKVRTFRDKSRYDYWGQGTQVTVSS”, the “polyreactivity (PSR sort gate)” value was “low polyreactivity”.

For “QVQLVVSGGGLVQAGGSLRLRCAASGRTIWPYAMGWYRQAPRKESEFDAAITWTVGRTYYADSVKGRFTISRDNAKNTVYLQMNSLKPDDTAVYYCNARSYSQTLFGYPDDYWGQGTQVTVSS”, the “polyreactivity (PSR sort gate)” value was “high polyreactivity”.
